How the values were obtained:
[1] = molecular target: T1, CD30 expressed on cells (CD30-293T, SUDHL1, HDLM-2) (UniProt P28908 19-595); assay: cell-based or functional assay
T1 sequence (looked up): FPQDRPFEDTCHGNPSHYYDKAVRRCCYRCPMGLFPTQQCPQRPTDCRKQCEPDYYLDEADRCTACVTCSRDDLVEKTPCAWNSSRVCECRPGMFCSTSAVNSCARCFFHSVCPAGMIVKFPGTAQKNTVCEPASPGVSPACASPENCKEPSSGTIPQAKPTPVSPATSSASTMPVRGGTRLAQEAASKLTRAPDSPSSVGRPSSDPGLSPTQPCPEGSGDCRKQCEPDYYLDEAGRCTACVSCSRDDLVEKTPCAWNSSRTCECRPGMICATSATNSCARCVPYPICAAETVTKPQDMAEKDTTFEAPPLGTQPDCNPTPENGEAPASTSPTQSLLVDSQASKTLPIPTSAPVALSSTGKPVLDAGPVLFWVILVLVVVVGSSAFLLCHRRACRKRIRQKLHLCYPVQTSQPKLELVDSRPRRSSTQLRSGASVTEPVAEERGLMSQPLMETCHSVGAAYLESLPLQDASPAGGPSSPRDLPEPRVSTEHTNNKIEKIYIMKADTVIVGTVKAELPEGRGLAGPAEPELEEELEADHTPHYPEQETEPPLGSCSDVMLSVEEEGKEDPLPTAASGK

[2] = molecular target: T1, CD30 expressed on cells (CD30-293T, …); assay: cell-based or functional assay; remark: listed apart in the source

Row | Binder | Cytotoxicity (%) against CD30-expressing cell (SUDHL1), CAR-T/Target 0.11 [1] [%] | Cytotoxicity (%) against CD30-expressing cell (SUDHL1), CAR-T/Target 0.33 [1] [%] | Cytotoxicity (%) against CD30-expressing cell (SUDHL1), CAR-T/Target 1 [1] [%] | Cytotoxicity (%) against CD30-expressing cell (CD30-293T), CAR-T/Target 0.11 [2] [%] | Cytotoxicity (%) against CD30-expressing cell (CD30-293T), CAR-T/Target 0.33 [2] [%] | Cytotoxicity (%) against CD30-expressing cell (CD30-293T), CAR-T/Target 1 [2] [%]
1 | scFv CAR of anti CD30 antibody (T1-2), on CAR-T cells (other) EVQLLESGGGLVQPGGSLRLSCAASGFTFSGYGMSWVRQAPGKGLEWVSYISGYSYYTYYADSVKGRFTFSRDNSKNTLYLQMNSLRAEDTAVYYCARYDGNGFDYWGQGTLVTVSSGGGGSGGGGSGGGGSQSVLTQPPSASGTPGQRVTISCSGSSSNIGSNYVYWYQQLPGTAPKLLIYRNNQRPSGVPDRFSGSKSGTSASLAISGLRSEDEADYYCAADSSDDSYVFGGGTKLTVLGGQAGQTTTPAPRPPTPAPTIASQPLSLRPEACRPAAGGAVHTRGLDFACDIYIWAPLAGTCGVLLLSLVITLYCKRGRKKLLYIFKQPFMRPVQTTQEEDGCSCRFPEEEEGGCELRVKFSRSADAPAYQQGQNQLYNELNLGRREEYDVLDKRRGRDPEMGGKPRRKNPQEGLYNELQKDKMAEAYSEIGMKGERRRGKGHDGLYQGLSTATKDTYDALHMQALPPR | 11 | 35 | 54 | 1 | 7 | 13
2 | scFv CAR of anti CD30 antibody (T1-10), on CAR-T cells (other) EVQLLESGGGLVQPGGSLRLSCAASGFTFSSYGMSWVRQAPGKGLEWVSYISGGSYYTYYADSVKGRFTISRDNSKNTLYLQMNSLRAEDTAVYYCARYGYGYYDGSFDYWGQGTLVTVSSGGGGSGGGGSGGGGSQSVLTQPPSASGTPGQRVTISCSGSSSNIGSNYVYWYQQLPGTAPKLLIYRNNQRPSGVPDRFSGSKSGTSASLAISGLRSEDEADYYCAADGPYNYVFGGGTKLTVLGGQAGQTTTPAPRPPTPAPTIASQPLSLRPEACRPAAGGAVHTRGLDFACDIYIWAPLAGTCGVLLLSLVITLYCKRGRKKLLYIFKQPFMRPVQTTQEEDGCSCRFPEEEEGGCELRVKFSRSADAPAYQQGQNQLYNELNLGRREEYDVLDKRRGRDPEMGGKPRRKNPQEGLYNELQKDKMAEAYSEIGMKGERRRGKGHDGLYQGLSTATKDTYDALHMQALPPR | 33 | 60 | 81 | 1 | 7 | 33
3 | scFv CAR of anti CD30 antibody (T1-23), on CAR-T cells (other) EVQLLESGGGLVQPGGSLRLSCAASGFTFSSYSMSWVRQAPGKGLEWVSGIGYPYYTYYADSVKGRFTISRDNSKNTLYLQMNSLRAEDTAVYYCARYYYDYGFDYWGQGTLVTVSSGGGGSGGGGSGGGGSQSVLTQPPSASGTPGQRVTISCSGSSSNIGSNYVYWYQQLPGTAPKLLIYRNNQRPSGVPDRFSGSKSGTSASLAISGLRSEDEADYYCAAYRSYDYVFGGGTKLTVLGGQAGQTTTPAPRPPTPAPTIASQPLSLRPEACRPAAGGAVHTRGLDFACDIYIWAPLAGTCGVLLLSLVITLYCKRGRKKLLYIFKQPFMRPVQTTQEEDGCSCRFPEEEEGGCELRVKFSRSADAPAYQQGQNQLYNELNLGRREEYDVLDKRRGRDPEMGGKPRRKNPQEGLYNELQKDKMAEAYSEIGMKGERRRGKGHDGLYQGLSTATKDTYDALHMQALPPR | 37 | 68 | 84 | 7 | 41 | 79
4 | scFv CAR of anti CD30 antibody (T1-36), on CAR-T cells (other) EVQLLESGGGLVQPGGSLRLSCAASGFTFSYYYMSWVRQAPGKGLEWVSYIGGGGSGTYYADSVKGRFTISRDNSKNTLYLQMNSLRAEDTAVYYCARGPYYGYFDYWGQGTLVTVSSGGGGSGGGGSGGGGSQSVLTQPPSASGTPGQRVTISCSGSSSNIGSNYVYWYQQLPGTAPKLLIYRNNQRPSGVPDRFSGSKSGTSASLAISGLRSEDEADYYCAAYPSYDSYVFGGGTKLTVLGGQAGQTTTPAPRPPTPAPTIASQPLSLRPEACRPAAGGAVHTRGLDFACDIYIWAPLAGTCGVLLLSLVITLYCKRGRKKLLYIFKQPFMRPVQTTQEEDGCSCRFPEEEEGGCELRVKFSRSADAPAYQQGQNQLYNELNLGRREEYDVLDKRRGRDPEMGGKPRRKNPQEGLYNELQKDKMAEAYSEIGMKGERRRGKGHDGLYQGLSTATKDTYDALHMQALPPR | 48 | 89 | 95 | 21 | 78 | 98
5 | scFv CAR of anti CD30 antibody (T1-117), on CAR-T cells (other) EVQLLESGGGLVQPGGSLRLSCAASGFTFSYYGMSWVRQAPGKGLEWVSYISGYSSYTYYADSVKGRFTISRDNSKNTLYLQMNSLRAEDTAVYYCARYNDSGSFDYWGQGTLVTVSSGGGGSGGGGSGGGGSQSVLTQPPSASGTPGQRVTISCSGSSSNIGSNYVYWYQQLPGTAPKLLIYRNNQRPSGVPDRFSGSKSGTSASLAISGLRSEDEADYYCAADAGNRYVFGGGTKLTVLGGQAGQTTTPAPRPPTPAPTIASQPLSLRPEACRPAAGGAVHTRGLDFACDIYIWAPLAGTCGVLLLSLVITLYCKRGRKKLLYIFKQPFMRPVQTTQEEDGCSCRFPEEEEGGCELRVKFSRSADAPAYQQGQNQLYNELNLGRREEYDVLDKRRGRDPEMGGKPRRKNPQEGLYNELQKDKMAEAYSEIGMKGERRRGKGHDGLYQGLSTATKDTYDALHMQALPPR | -2 | 11 | 21 | -3 | -1 | -14
6 | scFv CAR of anti CD30 antibody (T1-7), on CAR-T cells (other) EVQLLESGGGLVQPGGSLRLSCAASGFTFSGYGMSWVRQAPGKGLEWVSYISSGSYYTYYADSVKGRFTISRDNSKNTLYLQMNSLRAEDTAVYYCARYRGDNDYYGYFDYWGQGTLVTVSSGGGGSGGGGSGGGGSQSVLTQPPSASGTPGQRVTISCSCSSSNIGNNAVSWYQQLPGTAPKLLIYRNNQRPSGVPDRFSGSKSGTSASLAISGLRSEDEADYYCAADYGSDYVFGGGTKLTVLGGQAGQTTTPAPRPPTPAPTIASQPLSLRPEACRPAAGGAVHTRGLDFACDIYIWAPLAGTCGVLLLSLVITLYCKRGRKKLLYIFKQPFMRPVQTTQEEDGCSCRFPEEEEGGCELRVKFSRSADAPAYQQGQNQLYNELNLGRREEYDVLDKRRGRDPEMGGKPRRKNPQEGLYNELQKDKMAEAYSEIGMKGERRRGKGHDGLYQGLSTATKDTYDALHMQALPPR | 8 | 18 | 34 | -5 | -2 | -2
7 | scFv CAR of anti CD30 antibody (T1-8), on CAR-T cells (other) EVQLLESGGGLVQPGGSLRLSCAASGFTFSSYMSWVRQAPGKGLEWVSSIGSGYYSTYYADSVKGRFTISRDNSKNTLYLQMNSLRAEDTAVYYCARDYYGGFDYWGQGTLVTVSSGGGGSGGGGSGGGGSQSVLTQPPSASGTPGQRVTISCSGSSSNIGSNYVYWYQQLPGTAPKLLIYRNNQRPSGVPDRFSGSKSGTSASLAISGLRSEDEADYYCAAYDSYSYVFGGGTKLTVLGGQAGQTTTPAPRPPTPAPTIASQPLSLRPEACRPAAGGAVHTRGLDFACDIYIWAPLAGTCGVLLLSLVITLYCKRGRKKLLYIFKQPFMRPVQTTQEEDGCSCRFPEEEEGGCELRVKFSRSADAPAYQQGQNQLYNELNLGRREEYDVLDKRRGRDPEMGGKPRRKNPQEGLYNELQKDKMAEAYSEIGMKGERRRGKGHDGLYQGLSTATKDTYDALHMQALPPR | 43 | 60 | 78 | -8 | 0 | 35
